*1 amine or outer side, *2 acyl side, *3 side chain or, on linkers, in order; H or OH if unused. Bridges are numbered along the chain shown (N, C = ends). Where no end group is shown, it is not given here. [ ]: non-standard residue; d: D form. The star is where a group is joined. Phe(4-(2-(Boc)aminoethoxy)) = phenylalanine with 4-(2-(Boc-amino)ethoxy) on the ring, CC(C)(C)OC(=O)NCCOc1ccc(C[C@H](N[*:1])C(=O)[*:2])cc1; Phe(3,5-F2) = N[C@@H](Cc1cc(F)cc(F)c1)C(=O)O; 2Nal = N[C@@H](Cc1ccc2ccccc2c1)C(=O)O; AEF = NCCOc1ccc(C[C@H](N)C(=O)O)cc1; αMeY = C[C@](N)(Cc1ccc(O)cc1)C(=O)O; Cyclopropanecarbonyl = O=C(C1CC1)*; αMeF = C[C@](N)(Cc1ccccc1)C(=O)O; αMeE = C[C@](N)(CCC(=O)O)C(=O)O; Pen = CC(C)(S)[C@H](N)C(=O)O; αMeK = C[C@](N)(CCCCN)C(=O)O; αMeC = C[C@](N)(CS)C(=O)O; Ac6c = NC1(C(=O)O)CCCCC1; Thp = NC1(C(=O)O)CCOCC1; Abu = CC[C@H](N)C(=O)O; Aib = CC(C)(N)C(=O)O; Butyryl = CCCC(=O)*; Propyl = CCC*

B1: Compound No. 51 (peptide)
peptide: Ac-[dR][Pen]QTWQ[Pen][AEF][2Nal][Thp]K(Cyclopropanecarbonyl)N[Thp]-NH2
modifications: disulfide 2-7
SMILES: CC(=O)N[C@H](CCCNC(=N)N)C(=O)N[C@@H]1C(=O)N[C@@H](CCC(N)=O)C(=O)N[C@@H]([C@@H](C)O)C(=O)N[C@@H](Cc2c[nH]c3ccccc23)C(=O)N[C@@H](CCC(N)=O)C(=O)N[C@H](C(=O)N[C@@H](Cc2ccc(OCCN)cc2)C(=O)N[C@@H](Cc2ccc3ccccc3c2)C(=O)NC2(C(=O)N[C@@H](CCCCNC(=O)C3CC3)C(=O)N[C@@H](CC(N)=O)C(=O)NC3(C(N)=O)CCOCC3)CCOCC2)C(C)(C)SSC1(C)C
B2: Compound No. 52 (peptide)
peptide: Ac-[dR][Pen]QTWQ[Pen][AEF][2Nal][Thp]K(Butyryl)N[Thp]-NH2
modifications: disulfide 2-7
SMILES: CCCC(=O)NCCCC[C@H](NC(=O)C1(NC(=O)[C@H](Cc2ccc3ccccc3c2)NC(=O)[C@H](Cc2ccc(OCCN)cc2)NC(=O)[C@H]2NC(=O)[C@H](CCC(N)=O)NC(=O)[C@H](Cc3c[nH]c4ccccc34)NC(=O)[C@H]([C@@H](C)O)NC(=O)[C@H](CCC(N)=O)NC(=O)[C@@H](NC(=O)[C@@H](CCCNC(=N)N)NC(C)=O)C(C)(C)SSC2(C)C)CCOCC1)C(=O)N[C@@H](CC(N)=O)C(=O)NC1(C(N)=O)CCOCC1

The assay concerns the target T1, human IL-23R (interleukin-23 receptor) (human, UniProt Q5VWK5 24-629).
T1 sequence (looked up): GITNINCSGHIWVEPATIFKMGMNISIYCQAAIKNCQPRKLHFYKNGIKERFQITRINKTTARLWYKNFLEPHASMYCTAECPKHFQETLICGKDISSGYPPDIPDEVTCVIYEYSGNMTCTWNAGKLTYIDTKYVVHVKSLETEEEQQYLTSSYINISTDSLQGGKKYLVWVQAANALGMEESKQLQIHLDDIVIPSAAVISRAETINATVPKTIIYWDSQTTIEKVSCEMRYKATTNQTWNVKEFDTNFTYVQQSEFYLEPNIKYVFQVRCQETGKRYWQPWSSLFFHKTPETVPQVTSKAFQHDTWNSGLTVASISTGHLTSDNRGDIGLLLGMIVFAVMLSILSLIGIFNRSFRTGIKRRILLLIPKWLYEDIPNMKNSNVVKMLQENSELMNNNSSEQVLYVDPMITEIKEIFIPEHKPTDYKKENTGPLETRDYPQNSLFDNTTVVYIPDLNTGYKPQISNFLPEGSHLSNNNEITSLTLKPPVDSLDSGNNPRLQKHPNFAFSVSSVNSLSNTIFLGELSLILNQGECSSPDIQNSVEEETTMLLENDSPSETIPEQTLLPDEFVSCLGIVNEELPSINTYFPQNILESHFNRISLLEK
Briefly: cell-based or functional assay.
As to Ac-[dR][Abu]QTWQC[AEF][2Nal][Thp][Aib]NF-NH2 (thioether 2-7) [Compound No. 49], the “PBMC pSTAT3 IC50 (nM)” value turned out to be 18 nM. The same measure for Ac-[dR][Abu]QTWQC[AEF][2Nal][Ac6c][αMeE]NF[Aib][αMeK]-NH2 (thioether 2-7) [Compound No. 45]: 17 nM; for Ac-[dR][Abu]QTWQC[AEF][2Nal][Thp][αMeE]N[αMeY]-NH2 (thioether 2-7) [Compound No. 44]: 9.3 nM; for Ac-[dR][Abu]QTWQC[AEF][2Nal][Thp][αMeE]N[Phe(3,5-F2)]-NH2 (thioether 2-7) [Compound No. 46]: 48 nM. The same measure for Ac-[dR][Abu]QTWQC[Phe(3,4-diOMe)][2Nal][Thp][αMeE]N[αMeF]-NH2 (thioether 2-7) [Compound No. 41]: 2500 nM; for Ac-[dR][Abu]QTWQC[AEF][2Nal][Thp][αMeE]NF[Aib][αMeK]-NH2 (thioether 2-7) [Compound No. 43]: 8.2 nM. Turning to Ac-[dR][Abu]QTWQC[AEF][2Nal][Thp][Ac6c]N[αMeF]-NH2 (thioether 2-7) [Compound No. 50], the “PBMC pSTAT3 IC50 (nM)” value was 14 nM. For the molecule B1, the “PBMC pSTAT3 IC50 (nM)” value amounted to 27 nM. Take [dR][Abu]QTWQC[Phe(4-(2-(Boc)aminoethoxy))][2Nal][Thp]EN[Thp]-NH2 (thioether 2-7) [Compound No. 47]: the “PBMC pSTAT3 IC50 (nM)” value was found to be 5.3 nM.

For B2, the “PBMC pSTAT3 IC50 (nM)” value amounted to 16 nM.

In the case of Ac-[dR][Abu]QTWQC[AEF][2Nal][Ac6c]EN[Thp]-NH2 (thioether 2-7) [Compound No. 42], the “PBMC pSTAT3 IC50 (nM)” value came to 6.7 nM. The same measure for Propyl-[dR][Abu]QTWQ[αMeC][AEF][2Nal][Thp]ENF-NH2 (thioether 2-7) [Compound No. 48]: 7.2 nM.

(Values after patent publication US20220402983A1 (Janssen / Centocor, published 2022).)
